# Publication PMC9376091 (Scientific Reports, 2022)
# Several values for one entry are separate records, joined by “and”; a condition that tells them apart may be missing. Identical values can stand only once.
# B1: homoserine acetyl transferase (HSAT, MetX, Rv3341) from M. tuberculosis, recombinant (His)6-MetX (enzyme)
# chain: MTISDVPTQTLPAEGEIGLIDVGSLQLESGAVIDDVCIAVQRWGKLSPARDNVVVVLHALTGDSHITGPAGPGHPTPGWWDGVAGPGAPIDTTRWCAVATNVLGGCRGSTGPSSLARDGKPWGSRFPLISIRDQVQADVAALAALGITEVAAVVGGSMGGARALEWVVGYPDRVRAGLLLAVGARATADQIGTQTTQIAAIKADPDWQSGDYHETGRAPDAGLRLARRFAHLTYRGEIELDTRFANHNQGNEDPTAGGRYAVQSYLEHQGDKLLSRFDAGSYVILTEALNSHDVGRGRGGVSAALRACPVPVVVGGITSDRLYPLRLQQELADLLPGCAGLRVVESVYGHDGFLVETEAVGELIRQTLGLADREGACRR
# Target: the molecule itself
# Test: AUC
protein,measurement,value
B1,stoichiometry N,2 and 4
